Reference: PMC10770758, “Protocatechuate hydroxylase is a novel group A flavoprotein monooxygenase with a unique substrate recognition mechanism” (The Journal of Biological Chemistry, 2023)

B1: XaPobA (Xylophilus ampelinus) (protein)
chain: MRTQVGIVGAGPAGLMLAHLLRREGIDAVVIERAAREHVRTRLRAGVLEQGTVEMLREAGVGGRIDAVGMEMHAIDFRFGGRSHRLDFHEASGGRRAWVYPQHEVVTDLMSACDAGDVPILYEAPVERIEGLEDDRARIVFGQDGAAGEITCDFVAGCDGFRGVSRGSMPAGIARGYDRIYPFGWLGILADAPPASPDVTWGCSDRGFAMMSMRSPTVTRLYLQCEPDEDPDAWSDDRIWSELHRRLDVEGMPSLREGPIRDKGVTAMRSFLSEPMQHGRLFLAGDAAHIVPPTGAKGLNSAMADIKVLAAALVDHYRHGRSDRLATYSERCLRRMWLVQRFSAALCTMVHQFPGQNEFVRRLQRADLDYMTGTHAGRLQFAENFTGLPIE
B2: PaPobA (Pseudomonas aeruginosa PAO1) (protein)
chain: MKTQVAIIGAGPSGLLLGQLLHKAGIDNVILERQTPDYVLGRIRAGVLEQGMVDLLREAGVDRRMARDGLVHEGVEIAFAGQRRRIDLKRLSGGKTVTVYGQTEVTRDLMEAREACGATTVYQAAEVRLHDLQGERPYVTFERDGERLRLDCDYIAGCDGFHGISRQSIPAERLKVFERVYPFGWLGLLADTPPVSHELIYANHPRGFALCSQRSATRSRYYVQVPLSEKVEDWSDERFWTELKARLPSEVAEKLVTGPSLEKSIAPLRSFVVEPMQHGRLFLAGDAAHIVPPTGAKGLNLAASDVSTLYRLLLKAYREGRGELLERYSAICLRRIWKAERFSWWMTSVLHRFPDTDAFSQRIQQTELEYYLGSEAGLATIAENYVGLPYEEIE
B3: PkPobA (Pigmentiphaga kullae) (protein)
chain: MSERTQVGIVGAGPAGLLLSHLLHREGIESIVFDNRSREHVQQRLRAGVLEQGTVDLLAEVGLGERMRRLGMPQTSLDFRYAQASHRIDFAQEIGRTVMVYPQHEVVHDLIEARLAAGGDLRFDTPVTAIRDLEGPSPTILAGPEGRPVRCDFIAGCDGFHGICRDAIPASVMKAYDRVYPFGWLGILAEVPPAAPDVTWGCHETGFAMLSFRSPTRSRLYLQCEPDDDPDNWSDDRIWSALHERLDVPGMPPLIEGPIVQKGVTAMRSFQVEPLRHGALFLAGDAAHIVPPTGAKGLNSAVADIRVLGRALAAYYRQGSTRLLDSYSETCLRRMWLVHRFSAGLCTMVHSFPGQSDFARRLQRADLDYMTGSEPGRRAFSENFTGLPIEA

What was measured:
purified protein [1] = substrate: O=C(O)c1ccc(O)cc1; assay: purified protein; conditions: apparent, 0.25 mM NADPH, 20 mM Tris-HCl pH 7.9, 25 °C
purified protein [2] = substrate: O=C(O)c1ccc(O)c(O)c1; assay: purified protein; conditions: apparent, 0.25 mM NADPH, 20 mM Tris-HCl pH 7.9, 25 °C

Row | Protein | Km (purified protein [1]) | Km (purified protein [2]) | kcat (purified protein [2]) [s⁻¹] | kcat/Km (purified protein [2]) [M⁻¹ s⁻¹]
1 | B1 | 4.3 ± 0.3 × 10^−1 mM | 3.7 ± 0.9 × 10^−1 mM | – | –
2 | B2 | – | 1.3 ± 0.2 × 10^−1 mM | – | –
3 | B3 | 3.7 ± 1.8 × 10^−1 mM | 3.2 ± 0.7 × 10^−1 mM | 1.1 ± 0.1 | 3700 ± 600
